Reference: patent US20230242601A1, “PEPTIDE USED TO PREVENT OR TREAT SYNUCLEINOPATHY” (TOHOKU UNIVERSITY, priority 2020, published 2023)
One block for each substance: values may come before it. Where no end group is shown, it is not given here.

Tests used:
[1] = target: α-synuclein and FABP3 (Syn-FABP3 complex) (Homo sapiens, UniProt P05413); experiment: Thioflavin T fluorescence / TEM observation of α-synuclein amyloid fibril formation with FABP3 and peptide; type: biochemical
Procedure: An ARVO X4 (Perkin Elmer) was used for shaking and measuring fluorescence values over time in the fibril formation process of Syn. For the measurement, the samples were added to a 96-well plate (8×12-well plate; Greiner, Kremsmuenster, Austria) to give 150 μL/well, and the fluorescence (Ex of 440 nm and Em of 486 nm) was measured every 15 minutes while the well plate was continuously shaken at 37° C. […] Samples after 1800 minutes obtained after the measurement were measured with a transmission electron microscope (TEM) (JEOL JEM-1400 Plus). To a collodion membrane (400 mesh; Nisshin EM, Tokyo, Japan), 10 μL of the sample was added and allowed to stand at room temperature for two minutes, then washed with 5 μL of purified water, stained with 5 μL of a 10% EM stain solution for one minute, and then washed with 5 μL of purified water. This was air-dried overnight and then measured.
The thio-T measurement and the measurement with a TEM were performed in the same manner as in Example 3.
The thio-T measurement and the measurement with a TEM were performed in the same manner as in Example 3. The Thio-T measurement was performed for samples to each of which SynP130-140 was added at the beginning (0 hour), after 3 hours, 8 hours, or 24 hours.

[2] = target: FABP3 (Homo sapiens, UniProt P05413); experiment: QCM (quartz crystal microbalance) binding analysis of immobilized FABP3 with α-synuclein or its peptides; conditions: for binding affinity for FABP3 relative to the natural sequence (SynP130-140) / binding affinity for FABP3 compared with the natural sequence (SynP130-140), in words: immobilized FABP3; for binding to FABP3: His-tagged FABP3 immobilized, 2.5-20 nM analyte, 50 mM Tris-HCl pH 7.4, 25° C.
Sequence of FABP3 (P05413 2-133 limits assumed): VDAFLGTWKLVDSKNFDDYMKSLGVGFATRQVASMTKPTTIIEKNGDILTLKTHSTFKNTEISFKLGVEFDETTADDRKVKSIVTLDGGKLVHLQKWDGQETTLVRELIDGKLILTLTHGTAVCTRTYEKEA
Procedure: The substrate was washed with purified water, then 500 μL of a Ni solution (20 mM HEPES-NaOFH buffer, pH 7.5, 150 mM NaCl, 50 mM EDTA, 10 mM NiSO4) was added, and the substrate was allowed to stand at room temperature for 10 minutes. The substrate was washed with purified water, then 100 nM of FABP3 fused with a His-tag at the N-terminus diluted with a 50 mM Tris-HCl pH 7.4 was added to a quartz sensor and treated for one minute to be immobilized. […] The measurement was performed in a 500 μL liquid under conditions of 25° C. and 1000 rpm for three minutes. After the measurement, Kd, kon, and koff were each calculated with AQUA 2.0 software (Initium).
FABP3 and various mutants of SynP130-140 were interacted in the same manner as in Example 1. The measurement was performed by adding each peptide at any concentration to the immobilized FABP3.
The detailed experimental method is as described in the method of Example 1.

[3] = tested on: cultured dopaminergic nerve cells; experiment: Antagonistic effect of C-terminal peptide on uptake of ATTO-550-labeled α-synuclein monomer into cultured dopaminergic nerves; type: cell-based, mouse; conditions: 1 μM peptide with 1 μM ATTO-550-labeled α-synuclein monomer, 48 hours; p<0.0001 vs control
Procedure: Cultured dopaminergic nerves were prepared according to the method (Kawahata et al. 2019) already described. Specifically, the uterus was aseptically removed from a C57BL6N mouse on day 15.5 of pregnancy by abdominal midline incision under deep isoflurane anesthesia, and the fetal mesencephalon was removed in ice-cold Hank's balanced salt solution (HBSS) under a stereomicroscope. The tissue was then dispersed by treatment with a nerve cell suspension (Sumitomo Bakelite) at 37° C. for 30 minutes, the dispersion was centrifuged at 1000 rpm for 5 minutes, and then the supernatant was discarded. The cell pellet was dispersed, then a removal solution (Sumitomo Bakelite) was added, and the mixture was centrifuged at 900 rpm for 5 minutes. The supernatant was then removed, the pellet was suspended in Eagle's minimal essential medium (EMEM) and seeded on a poly-L-lysine-coated chamber plate (Iwaki). […] Values are mean±SEM (n>20), and one-way ANOVA with Tukey test was performed for all the groups. The conceptual diagram of the synthesized α-synuclein is illustrated in C.

Sequence of α-synuclein and FABP3 (Syn-FABP3 complex) (P05413 whole entry, species assumed, one chain of several): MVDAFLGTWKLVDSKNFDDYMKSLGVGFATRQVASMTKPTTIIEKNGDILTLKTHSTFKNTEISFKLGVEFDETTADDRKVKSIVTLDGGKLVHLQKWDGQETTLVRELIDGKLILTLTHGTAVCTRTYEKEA

Kd ([2]; QCM, binding to FABP3): 0.1 nM
binding affinity for FABP3 relative to the natural sequence (SynP130-140) ([2]; QCM): two-fold stronger
Substance: EEGFQDYEPEA [Y133F]
amyloid aggregate formation of α-synuclein, concentration dependence ([1]; peptide at 0.1, 0.5 or 1 equivalent to 69 μM α-synuclein and 69 μM FABP3): preferentially binds to FABP3 in a dose-dependent manner

binding to FABP3 ([2]; QCM): hardly bound to FABP3
Substance: SynP2-10: peptide of the N-terminal region of human α-synuclein, second to tenth amino acids (DVFMKGLSKA; partial peptide of alpha-synuclein) [reference compound]

amyloid fibril aggregate formation of α-synuclein ([1]; FABP3, α-synuclein and peptide added simultaneously, 1:1:1 molar ratio (69 μM each), Thio-T, 37° C.): forms amyloid tibril aggregates
release of Syn from the Syn-FABP3 complex and amyloid fibril formation ([1]; equimolar peptide added to the preformed 1:1 complex at 0, 3, 8 or 24 hours): releases Syn from FABP3
affinity for FABP3 compared with Syn [2]: stronger affinity for FABP3
Substance: SynP130-140: peptide of the C-terminal region of human α-synuclein composed of the 130th to 140th amino acids (EEGYQDYEPEA; partial peptide of alpha-synuclein)
binding to FABP3 ([2]; QCM): bound to FABP3 in a dose dependent manner

binding affinity for FABP3 relative to the natural sequence (SynP130-140) ([2]; QCM): 2 fold
Substance: Y133F/Y136F: SynP130-140 mutant in which tyrosine at position 133 and position 136 were both changed to phenylalanine (EEGFQDFEPEA)

binding affinity for FABP3 compared with the natural sequence (SynP130-140), in words ([2]; QCM): about the same affinity
Substance: Y136F: SynP130-140 mutant in which tyrosine at position 136 was changed to phenylalanine (EEGYQDFEPEA)

binding affinity for FABP3 compared with the natural sequence (SynP130-140), in words ([2]; QCM): about the same affinity
Substance: Y136W: peptide in which the 136th tyrosine in SynP130-140 was replaced by tryptophan (EEGYQDWEPEA)

Further lines, the substance ahead of its results:

Substance: EGYQDYEPEA [10aa]
intracellular uptake of fluorescently labeled α-synuclein (ATTO fluorescence intensity) [3]: inhibited the intracellular uptake

Substance: FABP3: fatty acid-binding protein 3
aggregation of synuclein on adding FABP3 alone ([1]; equimolar FABP3 added to α-synuclein, no peptide, Thio-T): completely suppressed the aggregation of synuclein

Substance: SynP73-96: peptide of the NAC region of human α-synuclein, 73th to 96th amino acids [reference compound]
binding to FABP3 ([2]; QCM): hardly bound to FABP3

Substance: Y133F/Y136W: SynP130-140 mutant with tyrosine 133 changed to phenylalanine and tyrosine 136 changed to tryptophan (EEGFQDWEPEA)
binding affinity for FABP3 compared with the natural sequence (SynP130-140), in words ([2]; QCM): failed to further strengthen the binding affinity

Substance: Y133W/Y136W: peptide in which the 133rd and 136th tyrosines in SynP130-140 were replaced by tryptophans (EEGWQDWEPEA)
binding affinity for FABP3 compared with the natural sequence (SynP130-140), in words ([2]; QCM): did not change the binding affinity
